The values that follow come from patent US20240069021A1 (ASAHI KASEI, published 2024).

In experiment [1] the target is T1, ribosomal protein L7/L12 of Pseudomonas aeruginosa (PA), recombinant tagged fusion protein (Pseudomonas aeruginosa, UniProt Q9HWC8 1-122).
T1 sequence: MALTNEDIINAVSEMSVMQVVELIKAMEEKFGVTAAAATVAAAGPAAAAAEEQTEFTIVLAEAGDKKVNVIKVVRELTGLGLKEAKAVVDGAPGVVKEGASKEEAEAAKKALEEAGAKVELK
Kind of experiment: ELISA on coated recombinant L7/L12, antibody 10 ug/mL. (ELISA stands for enzyme-linked immunosorbent assay.)

For experiment [2], the target named is T2, ribosomal protein L7/L12 of Bacillus subtilis (BS), recombinant tagged fusion protein (Bacillus subtilis, UniProt P02394 1-123).
T2 sequence: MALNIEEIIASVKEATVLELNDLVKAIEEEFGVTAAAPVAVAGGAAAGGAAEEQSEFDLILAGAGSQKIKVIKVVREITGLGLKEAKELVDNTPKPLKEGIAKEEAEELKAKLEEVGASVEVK
Described as above.

Experiment [3] concerns the target T3, ribosomal protein L7/L12 of Escherichia coli (EC), recombinant tagged fusion protein (Escherichia coli, UniProt P0A7K2 1-121). Described as above.
For experiment [4], the target named is ribosomal protein L7/L12 of Klebsiella pneumoniae (KP), recombinant tagged fusion protein (Klebsiella pneumoniae). The description is as above.
In experiment [5] the target is ribosomal protein L7/L12 of Serratia liquefaciens (SL), recombinant tagged fusion protein (Serratia liquefaciens). The description is as above.
Experiment [6] has as its target ribosomal protein L7/L12 of Rahnella aquatilis (RA), recombinant tagged fusion protein (Rahnella aquatilis). Described as above.
In experiment [7] the target is ribosomal protein L7/L12 of Citrobacter freundii (CF), recombinant tagged fusion protein (Citrobacter freundii). Described as above.
In experiment [8] the target is ribosomal protein L7/L12 of Listeria monocytogenes (LM), recombinant tagged fusion protein (Listeria monocytogenes). Described as above.
For experiment [9], the target named is ribosomal protein L7/L12 of Enterobacter cloacae (ECL), recombinant tagged fusion protein (Enterobacter cloacae). The description is as above.
In experiment [10] the target is ribosomal protein L7/L12 of Salmonella enterica (SE), recombinant tagged fusion protein (Salmonella enterica). The experiment is described as above.
The target of experiment [11] is ribosomal protein L7/L12 of Staphylococcus aureus (SA), recombinant tagged fusion protein (Staphylococcus aureus). Described as above.
Experiment [12] deals with T3, ribosomal protein L7/L12 of Escherichia …. Description: ELISA on coated recombinant L7/L12 (10 ng/mL), antibody 10 ug/mL, A450; + means absorbance >= 0.3.

B1: Generic Antibody B (LP54A3) (antibody, V domains shown)
VH: EVQLQQSGAELVKPGASVRLSCSASGFNIKDTYMHWMRQRPEQGLEWIGRIDPANGNAKYDPKFQVKATITADTSSNTASLQFSSLTSEDTAVYFCASESLDDMYYFDYWGQGTTLTVSS
VL: DIVMTQSQKFMSTSVGDRVSVTCKASQNVGVNVAWYQQKPGQSPKALIYSASYRYSGVPDRFTGSGSGTDFTLTISNVQSEDLAEYFCQQYHSYLYTFGGGTKLEIK
Turning to B1, the “absorbance (450 nm)” value in [1], in experiment [2] and in experiment [3] was at least 0.3 in each case.

B2: Generic Antibody C (CP141A190.1) (antibody, V domains shown)
VH: QVQLQQPGAELVKPGASVKLSCKTSGYNFTSNWIHWVKQRPGQGLEWIGEINPSNGRANYNEKFKNKATLTVDKSSSTAFMHLSSLTSEDSAVYFCSRGDFDEGFTYWGQGTLVTVSA
VL: QIVLTQSPAIMSASLGERVTMTCTASSNVNSDYLHWYQQKPGSSPRLWIYTTSNLASGVPTRFSGNGSGTSYSLTISSMEAEDAATYYCHQYHRSPRTFGGGTKLEIK
As to B2, the “absorbance (450 nm)” value in experiment [1], in [2], in experiment [4], in experiment [5], in experiment [6] and in experiment [7] was at least 0.3 each time. The “absorbance (450 nm)” value in experiment [8], in experiment [9], in [10], in experiment [3] and in [11] was at least 0.3 each time.

B3: Specific Antibody A (HI142D11.3) (antibody, V domains shown)
VH: EVQLQQSGAELVKPGASVKLSCTASGFNIKDTYIHWVKQRPEQGLEWIGRIDPANGNTKYDPKFQGKATITADTSSNTAYLQLSSLTSEDTAVYYCPRPYGYVGWYFDVWGAGTTVTVSS
VL: DIVMTQSHKFMSTSVGDRVSITCKASQDVRNAVAWYQQKPGQSPKLLISSASYRYSGVPDRFTGSGSGTDFTFTISSVQAEDLAVYYCQQHYDTPPTFGGGTKLEIK
As for B3, the binding result in [12] is reported as “binds”.

B4: Generic Antibody A (PA51B2) (antibody, V domains shown)
VH: QVQLQQPGSVLVRPGASVKLSCKPSGYTFTGSWMHWTKQRPGQGLEWIGEIHPYSGNTNYNEKFRVKATLTVDTSSSTTYVDLSSLTSDDSAVYYCASGDFDAGFTYWGQGTLVTVSA
VL: DIVLTQSPASLAVSLGRRATISCKASQSVDYDGDSYMNWYQQKPGQPPKLLIYVASNLESGIPARFSGSGSGTDFTLNIHPVEEEDAATYYCQQTNEDPFTFGAGTKLELK
As to B4, the “absorbance (450 nm)” value in [1], in experiment [2], in [4], in experiment [5], in experiment [6] and in experiment [7] was at least 0.3 throughout. Besides, the “absorbance (450 nm)” value in [8], in experiment [9], in [10], in experiment [3] and in experiment [11] was at least 0.3 each time.

B5: Specific Antibody D (EC50C1) (antibody, V domains shown)
VH: QVQLQQSGAELAKPGASVKMSCKASGYTFTSYWMNWVKQRPGQGLEWIGYINPNTGYTEYDQKFKDKATLTADKSSSTAYMQLSSLTSEDSAVYYCARYWAYFEYWGQGTTLTVSS
VL: DIKMTQSPSSMYASLGERVTITCKASQDINSYLSWFQQKPGKSPKTLIYRANRLVDGVPSRFSGSGSGQDYSLTISSLEYEDMGIYYCLQYDEFRTFGGGTKLEIK
Regarding B5, the binding result in experiment [12] was “binds”.
